Source: patent US20190023748A1 (NAVIGEN, published 2019)
Bridge positions count the residues as written; N and C are the ends. Square brackets hold non-standard residues; d marks the D form. Primed or numbered codes have the meaning given here. PEG4′ = not defined here

Tests used:
Experiment in all cases: cell-based or functional assay
[1] = molecular target: HIV-1 gp41 of strain JRFL (HIV-1 strain JRFL)
[2] = molecular target: HIV-1 gp41 of isolate KNH1135 (clade A) (HIV-1 isolate KNH1135)
[3] = molecular target: HIV-1 gp41 of isolate KNH1207 (clade A) (HIV-1 isolate KNH1207)
[4] = molecular target: HIV-1 gp41 of isolate KNH1209 (clade A) (HIV-1 isolate KNH1209)
[5] = molecular target: HIV-1 gp41 of isolate 0503M02138 (AE) (HIV-1 isolate 0503M02138)
[6] = molecular target: HIV-1 gp41 of isolate CM244 (AE) (HIV-1 isolate CM244)
[7] = molecular target: HIV-1 gp41 of isolate NI1052 (AE) (HIV-1 isolate NI1052)
[8] = molecular target: HIV-1 gp41 of isolate NI1149 (AE) (HIV-1 isolate NI1149)
[9] = molecular target: HIV-1 gp41 of isolate NP1525 (AE) (HIV-1 isolate NP1525)
[10] = molecular target: HIV-1 gp41 of isolate 55815 (AG) (HIV-1 isolate 55815)
[11] = molecular target: HIV-1 gp41 of isolate CAM0002 (AG) (HIV-1 isolate CAM0002)
[12] = molecular target: HIV-1 gp41 of isolate CAM0013 (AG) (HIV-1 isolate CAM0013)
[13] = molecular target: HIV-1 gp41 of isolate CAM0005 (AG) (HIV-1 isolate CAM0005)
[14] = molecular target: HIV-1 gp41 of isolate CAM1475MV (AG) (HIV-1 isolate CAM1475MV)
[15] = molecular target: HIV-1 gp41 of isolate 873 (clade B) (HIV-1 isolate 873)
[16] = molecular target: HIV-1 gp41 of isolate BK132/GS009 (clade B) (HIV-1 isolate BK132/GS009)
[17] = molecular target: HIV-1 gp41 of isolate BZ167 (clade B) (HIV-1 isolate BZ167)
[18] = molecular target: HIV-1 gp41 of isolate US1/GS0004 (clade B) (HIV-1 isolate US1/GS0004)
[19] = molecular target: HIV-1 gp41 of isolate PBL288 (clade C) (HIV-1 isolate PBL288)
[20] = molecular target: HIV-1 gp41 of isolate SE364/GS015 (clade C) (HIV-1 isolate SE364/GS015)
[21] = molecular target: HIV-1 gp41 of isolate SM145/GS016 (clade C) (HIV-1 isolate SM145/GS016)
[22] = molecular target: HIV-1 gp41 of isolate 57128 (clade D) (HIV-1 isolate 57128)
[23] = molecular target: HIV-1 gp41 of isolate 301965 (clade D) (HIV-1 isolate 301965)
[24] = molecular target: HIV-1 gp41 of isolate A03349M1 (clade D) (HIV-1 isolate A03349M1)
[25] = molecular target: HIV-1 gp41 of isolate A07412M1 (clade D) (HIV-1 isolate A07412M1)
[26] = molecular target: HIV-1 gp41 of isolate A08483M1 (clade D) (HIV-1 isolate A08483M1)
[27] = molecular target: HIV-1 gp41 of isolate D26830M4 (clade D) (HIV-1 isolate D26830M4)
[28] = molecular target: HIV-1 gp41 of isolate E08364M4 (clade D) (HIV-1 isolate E08364M4)
[29] = molecular target: HIV-1 gp41 of isolate NKU3006 (clade D) (HIV-1 isolate NKU3006)
[30] = molecular target: HIV-1 gp41 of isolate 92UG029 (clade A) (HIV-1 isolate 92UG029)
[31] = molecular target: HIV-1 gp41 of isolate KER2008 (clade A) (HIV-1 isolate KER2008)

B1: CPT31 (cholesterol-PIE12-2-trimer with PEG32 fourth-arm spacer) (peptide)
peptide: Ac-[dH][dP][dC][dD][dY][dP][dE][dW][dQ][dW][dL][dC][dE][dL]G[PEG4′]K-NH2
modifications: disulfide 3-12 (inferred); not fully specified (some residues); numbers in words are those of the source; also: PIE12-2 trimer on scaffold, fourth arm PEG28 + PEG4 with cholesteryl carbamate
Antiviral potency, IC50, JRFL pseudovirion entry assay [1]: 0.015 nM
1 nM inhibition [2]: 80.6%
10 nM inhibition [2]: 83.4%
1 nM inhibition [3]: 92.1%
10 nM inhibition [3]: 98.2%
1 nM inhibition [4]: 94.3%
10 nM inhibition [4]: 95.2%
1 nM inhibition [5]: 95.2%
10 nM inhibition [5]: 98%
1 nM inhibition [6]: 95.4%
10 nM inhibition [6]: 99.5%
1 nM inhibition [7]: 98%
10 nM inhibition [7]: 99.7%
1 nM inhibition [8]: 92.9%
10 nM inhibition [8]: 97.4%
1 nM inhibition [9]: 98.8%
10 nM inhibition [9]: 99.3%
1 nM inhibition [10]: 98.8%
10 nM inhibition [10]: 99.5%
1 nM inhibition [11]: 95.6%
10 nM inhibition [11]: 99.7%
1 nM inhibition [12]: 98.4%
10 nM inhibition [12]: 99.7%
1 nM inhibition [13]: 98.4%
10 nM inhibition [13]: 99.8%
1 nM inhibition [14]: 98.3%
10 nM inhibition [14]: 98.8%
1 nM inhibition [15]: 93.6%
10 nM inhibition [15]: 98.7%
1 nM inhibition [16]: 99.7%
10 nM inhibition [16]: 99.8%
1 nM inhibition [17]: 99.4%
10 nM inhibition [17]: 99.8%
1 nM inhibition [18]: 95.3%
10 nM inhibition [18]: 97.7%
1 nM inhibition [19]: 3%
10 nM inhibition [19]: 12%
1 nM inhibition [20]: 91.6%
10 nM inhibition [20]: 97.7%
1 nM inhibition [21]: 30.6%
10 nM inhibition [21]: 75.7%
1 nM inhibition [22]: 35.2%
10 nM inhibition [22]: 37.3%
1 nM inhibition [23]: 96.1%
10 nM inhibition [23]: 97.7%
1 nM inhibition [24]: 93.6%
10 nM inhibition [24]: 99.5%
1 nM inhibition [25]: 92%
10 nM inhibition [25]: 96.7%
1 nM inhibition [26]: 69.2%
10 nM inhibition [26]: 72.3%
1 nM inhibition [27]: 95.3%
10 nM inhibition [27]: 98.5%
1 nM inhibition [28]: 50.7%
10 nM inhibition [28]: 58.6%
1 nM inhibition [29]: 97.2%
10 nM inhibition [29]: 99.8%
1 nM inhibition [30]: 95.2%
10 nM inhibition [30]: 98.2%
1 nM inhibition [31]: 84.1%
10 nM inhibition [31]: 85.3%
